Experimental data as given in EP4659808A2 (Sanofi, dated 2025).

T1: murine beta-DG extracellular domain (mbeta-DG ECD) (mouse, UniProt Q62165 652-746)
T1 construct: range 652-746; Made in E. coli; also called mbeta-DG-HPC4; m βDG; not shown: C-terminal HPC4 tag
T1 sequence (looked up): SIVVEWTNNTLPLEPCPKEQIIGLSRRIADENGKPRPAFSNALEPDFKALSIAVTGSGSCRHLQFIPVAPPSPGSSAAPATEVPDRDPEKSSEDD

T2: human beta-DG extracellular domain (human, UniProt Q14118 654-749, biotinylated in the Example 6 ELISA)
T2 construct: extracellular domain; Expression of the soluble human protein is not described; also called hBeta-DG; hbeta-DG
T2 sequence (looked up): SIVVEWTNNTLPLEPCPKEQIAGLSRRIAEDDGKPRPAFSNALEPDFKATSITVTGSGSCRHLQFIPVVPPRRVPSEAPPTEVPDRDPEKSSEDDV

B1: anti-beta-DG antibody derived from phage display clone B06 (antibody, V domains shown)
VH: QIQLVQSGAEVKKPGKSLKIACKGSGYSFSNYWIGWVRQMPGKGLEWMGIIYPGDSDTRYSPSFHGQVTISADKSISTAYLQWSSLKASDTAMYYCARGVIINGTTSGFDYWGQGTLVIVSS
VL: ETTLTQSPATLSVSPGERATLSCRASQSVSSNLAWYQQKPGQAPRLLMYGASTRATGIPARFSGSGSGTEFTLTISSLQSEDFAVYYCQHYNNLPLTFGGGTKVDLK
notes: Phage display clone; also called B6
B2: anti-beta-DG antibody phage display clone B04 (antibody, V domains shown)
VH: QVQLQQSGGGLVQPGGSLRLSCAASGFTFSSYAMSWVRQAPGKGLEWVSAISGSGGSTYYADSVKGRFTVSRDNSKNTLYLQMNSLRAEDTAVYYCARLGYCSSTSCYLSAFDIWGQGTMVTVSS
VL: EIVLTQSPSTLSASVGDRVTITCRASQSISSWLAWYQQKPGKAPKLLIYDASSLESGVPSRFSGSGSGTEFTLTISSLQPDDFATYYCQQYNSYPLTFGGGTKVEIK
notes: Phage display clone
B3: triAb 3429 (bispecific antibody, human IgG1, kappa)
light 1: EIVLTQSPDFLSVTPGEKVTLTCRASQSISNYLHWYQQKSDQSPKLLIKYASQSISGVPSRFSGSGSGTDFTLTISSVEAEDFATYFCQQSKSWPRTFGGGTKLEIKDKTHTEIVLTQSPDFLSVTPKEKVTLTCRASQSIGNNLHWYQQKSDQSPKLLIKYASQSISGIPSRFSGSGSGTDFTLTINSVEAEDAATYFCQQSKSWPRTFGGGTKLEIKDKTHTRTVAAPSVFIFPPSDEQLKSGTASVVCLLNNFYPREAKVQWKVDNALQSGNSQESVTEQDSKDSTYSLSSTLTLSKADYEKHKVYACEVTHQGLSSPVTKSFNRGEC
heavy 1: EVQLVESGGGLVKPGGSLRLSCAASGFTFSSYTMSWVRQAPGKGLEWVASISSSGSNTYYPDSVKGRFTISRDNAKNNLYLQMNSLRAEDTALYYCARFDYGSSLDSWGQGTLLTVSSDKTHTEVQLVESGGGLVQPGGSLRLSCAASGFTFSSYTMSWVRQAPGKGLEWVATISSSGDNTYYPDSVKGRFTISRDNSKNTLYLQMSSLRAEDTALYYCARFDYGSSLDSWGQGTTLTVSSDKTHTASTKGPSVFPLAPSSKSTSGGTAALGCLVKDYFPEPVTVSWNSGALTSGVHTFPAVLQSSGSLSSVVTVPSSSLGTQTYICNVNHKPSNTKVDKKVEPKSCDKTHTCPPCPAPELLGGPSVFLFPPKPKDTLYITREPEVTCVVVDVSHEDPEVKFNWYVDGVEVHNAKTKPREEQYNNASRVVSVLTVLHQDWLNGKEYKCKVSNKALPAPIEKTISKAKGQPREPQVYTLPPCRDELTKNQVSLWCLVKGFYPSDIAVEWESNGQPENNYKTTPPVLDSDGSFFKKLTVDKSRWQQGNVFSCSVMHEALHNHYTQKSLSLSPG
heavy 2: QVQLVQSGAEVVKPGSSVKVSCEASGFTFTDSVITWVRQRPGQGLEWIGEIYPGSGNFYYNEKFQGRVTITADKSTSTAYMELSSLRSEDTAVYFCAMRRSSWGQGTLVTVSSASTKGPSVFPLAPSSKSTSGGTAALGCLVKDYFPEPVTVSWNSGALTSGVHTFPAVLQSSGSLSSVVTVPSSSLGTQTYICNVNHKPSNTKVDKKVEPKSCDKTHTCPPCPAPELLGGPSVFLFPPKPKDTLYITREPEVTCVVVDVSHEDPEVKFNWYVDGVEVHNAKTKPREEQYNNASRVVSVLTVLHQDWLNGKEYKCKVSNKALPAPIEKTISKAKGQPREPQVCTLPPSRDELTKNQVSLSCAVKGFYPSDIAVEWESNGQPENNYKTTPPVLDSDGSFFLVSKLTVDKSRWQQGNVFSCSVMHEALHNRFTQKSLSLSPG
light 2: DVVMTQTPLSLSVTPGQPASISCKSSQTIVHSNSKTYLEWYLQKPGQSPQLLIYKVSSRFSGVPDRFSGSGSGTDFTLKISRVEAEDVGVYYCFQGSHVPLTFGQGTKLEIKRTVAAPSVFIFPPSDEQLKSGTASVVCLLNNFYPREAKVQWKVDNALQSGNSQESVTEQDSKDSTYSLSSTLTLSKADYEKHKVYACEVTHQGLSSPVTKSFNRGEC

Assays:
[1] = target: T1, murine beta-DG extracellular domain …; assay: SPR (Biacore), mAb immobilized, mBeta-DG in flow
[2] = target: T2, human beta-DG extracellular domain; assay: SPR (Biacore), mAb immobilized, hBeta-DG in flow
[3] = target: T2, human beta-DG extracellular domain; assay: SPR (Biacore T100), antibody captured on Protein G chip, BDG in flow, 1:1 model

Binder	Kd [1] [nM]	koff [1] [s⁻¹]	kon [1] [M⁻¹ s⁻¹]	Kd [2] [nM]	koff [2] [s⁻¹]	kon [2] [M⁻¹ s⁻¹]	Kd [3] [nM]	koff [3] [s⁻¹]	kon [3] [M⁻¹ s⁻¹]
B1	162	0.00232	14300	2.36	0.00216	968000			
B2				2.57					
B3							1.9	0.00404	2.13e+06
